Laboratory results: patent US20190134153A1, “IMMUNOMODULATORY EFFECT OF INHALED KINASE INHIBITOR PEPTIDES IN LUNG” (MOERAE MATRIX, INC., priority 2017, published 2019)

Columns and labels:
Experiment in all cases: Kinase Profiling Assay
Type in all cases: biochemical
Conditions in all cases: 100 μM
CK1γ2(h) = CK1γ2(h) (Homo sapiens, UniProt P78368)
EGFR(T790M)(h) = EGFR(T790M)(h) (Homo sapiens, UniProt P00533, T790M)
Aurora-A(h) = target: T1, Aurora-A(h) (Homo sapiens, UniProt O14965)
T1 sequence (O14965 1-403): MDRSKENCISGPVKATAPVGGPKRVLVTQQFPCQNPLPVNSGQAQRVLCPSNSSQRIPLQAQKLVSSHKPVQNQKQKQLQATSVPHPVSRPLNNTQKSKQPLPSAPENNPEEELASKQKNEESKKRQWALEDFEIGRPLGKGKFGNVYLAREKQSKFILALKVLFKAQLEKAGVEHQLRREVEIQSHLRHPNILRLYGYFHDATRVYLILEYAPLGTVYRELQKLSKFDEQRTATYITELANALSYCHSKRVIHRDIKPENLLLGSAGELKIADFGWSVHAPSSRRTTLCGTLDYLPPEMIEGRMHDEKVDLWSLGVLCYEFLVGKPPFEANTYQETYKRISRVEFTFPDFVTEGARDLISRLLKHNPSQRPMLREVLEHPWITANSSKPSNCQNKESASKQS

PAK6(h) = PAK6(h) (Homo sapiens, UniProt Q9NQU5)
CLK2(h) = CLK2(h) (Homo sapiens, UniProt P49760)
Plk1(h) = Plk1(h) (Homo sapiens, UniProt P53350)
PAR-1Bα(h) = PAR-1Bα(h) (Homo sapiens, UniProt Q7KZI7)
CK1γ1(h) = CK1γ1(h) (Homo sapiens, UniProt Q9HCP0)
c-RAF(h) = c-RAF(h) (Homo sapiens, UniProt P04049)

Chain of PAR-1Bα(h) (Q7KZI7 1-725 isoform Q7KZI7-4): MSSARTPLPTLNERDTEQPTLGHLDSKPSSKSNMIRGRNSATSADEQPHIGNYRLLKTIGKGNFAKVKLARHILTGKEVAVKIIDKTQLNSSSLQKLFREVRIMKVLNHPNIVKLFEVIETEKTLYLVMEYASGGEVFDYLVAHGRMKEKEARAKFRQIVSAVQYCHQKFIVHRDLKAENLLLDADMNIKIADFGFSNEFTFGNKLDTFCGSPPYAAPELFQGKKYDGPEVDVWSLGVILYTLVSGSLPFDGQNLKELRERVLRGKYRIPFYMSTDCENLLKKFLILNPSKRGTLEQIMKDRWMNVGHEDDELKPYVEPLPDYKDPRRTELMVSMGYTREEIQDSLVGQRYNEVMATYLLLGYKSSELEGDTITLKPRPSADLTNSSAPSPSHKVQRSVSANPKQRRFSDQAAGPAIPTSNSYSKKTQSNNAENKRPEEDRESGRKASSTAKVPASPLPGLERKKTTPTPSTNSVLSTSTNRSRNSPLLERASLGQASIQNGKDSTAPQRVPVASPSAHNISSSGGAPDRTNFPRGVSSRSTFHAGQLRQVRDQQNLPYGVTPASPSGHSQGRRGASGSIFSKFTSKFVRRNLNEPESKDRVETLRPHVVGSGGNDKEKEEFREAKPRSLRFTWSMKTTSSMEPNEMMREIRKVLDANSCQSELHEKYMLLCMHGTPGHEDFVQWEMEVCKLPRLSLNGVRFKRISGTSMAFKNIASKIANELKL
Chain of PAK6(h) (Q9NQU5 whole entry): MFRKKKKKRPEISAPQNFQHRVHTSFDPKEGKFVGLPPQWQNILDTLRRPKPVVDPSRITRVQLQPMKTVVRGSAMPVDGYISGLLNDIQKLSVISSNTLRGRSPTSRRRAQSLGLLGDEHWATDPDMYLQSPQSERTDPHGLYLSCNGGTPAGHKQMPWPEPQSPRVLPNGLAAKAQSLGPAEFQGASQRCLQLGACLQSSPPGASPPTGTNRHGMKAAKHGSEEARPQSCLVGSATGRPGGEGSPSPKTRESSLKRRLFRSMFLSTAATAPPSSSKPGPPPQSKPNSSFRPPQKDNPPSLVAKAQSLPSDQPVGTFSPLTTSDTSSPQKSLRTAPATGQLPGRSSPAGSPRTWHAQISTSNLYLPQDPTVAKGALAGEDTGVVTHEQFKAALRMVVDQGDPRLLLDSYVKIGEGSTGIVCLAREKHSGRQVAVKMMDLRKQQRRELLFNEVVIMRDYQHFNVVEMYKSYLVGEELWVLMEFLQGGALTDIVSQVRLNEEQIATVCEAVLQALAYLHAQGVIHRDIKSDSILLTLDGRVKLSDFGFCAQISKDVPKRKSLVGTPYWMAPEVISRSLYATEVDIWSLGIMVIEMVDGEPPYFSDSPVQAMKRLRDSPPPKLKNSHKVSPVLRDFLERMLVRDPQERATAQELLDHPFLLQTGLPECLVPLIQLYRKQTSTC
Chain of CLK2(h) (P49760 whole entry): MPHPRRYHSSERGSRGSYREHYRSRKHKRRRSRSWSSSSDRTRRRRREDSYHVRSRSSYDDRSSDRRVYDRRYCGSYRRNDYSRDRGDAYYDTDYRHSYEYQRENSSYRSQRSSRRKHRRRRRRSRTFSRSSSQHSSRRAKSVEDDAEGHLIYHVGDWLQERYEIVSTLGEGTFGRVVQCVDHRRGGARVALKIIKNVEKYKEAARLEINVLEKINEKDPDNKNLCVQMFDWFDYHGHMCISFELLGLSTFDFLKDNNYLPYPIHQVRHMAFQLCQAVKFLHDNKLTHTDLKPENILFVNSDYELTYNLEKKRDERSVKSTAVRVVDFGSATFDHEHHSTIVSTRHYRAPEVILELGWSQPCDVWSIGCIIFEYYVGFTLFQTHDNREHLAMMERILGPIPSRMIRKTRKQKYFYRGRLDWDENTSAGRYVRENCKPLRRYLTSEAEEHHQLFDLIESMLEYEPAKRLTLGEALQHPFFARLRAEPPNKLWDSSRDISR
Chain of CK1γ1(h) (Q9HCP0 whole entry): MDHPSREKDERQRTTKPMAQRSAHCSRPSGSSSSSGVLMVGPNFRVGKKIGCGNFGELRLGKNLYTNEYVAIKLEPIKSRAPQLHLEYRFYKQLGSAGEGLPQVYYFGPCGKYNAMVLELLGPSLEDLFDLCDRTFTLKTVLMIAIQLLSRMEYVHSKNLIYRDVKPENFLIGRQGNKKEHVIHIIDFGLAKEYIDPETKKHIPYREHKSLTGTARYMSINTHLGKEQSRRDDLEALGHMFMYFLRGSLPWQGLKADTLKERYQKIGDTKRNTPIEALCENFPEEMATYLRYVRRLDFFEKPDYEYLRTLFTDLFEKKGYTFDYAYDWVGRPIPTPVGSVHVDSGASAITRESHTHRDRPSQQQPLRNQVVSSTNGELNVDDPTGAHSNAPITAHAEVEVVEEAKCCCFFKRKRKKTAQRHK
Chain of CK1γ2(h) (P78368 whole entry): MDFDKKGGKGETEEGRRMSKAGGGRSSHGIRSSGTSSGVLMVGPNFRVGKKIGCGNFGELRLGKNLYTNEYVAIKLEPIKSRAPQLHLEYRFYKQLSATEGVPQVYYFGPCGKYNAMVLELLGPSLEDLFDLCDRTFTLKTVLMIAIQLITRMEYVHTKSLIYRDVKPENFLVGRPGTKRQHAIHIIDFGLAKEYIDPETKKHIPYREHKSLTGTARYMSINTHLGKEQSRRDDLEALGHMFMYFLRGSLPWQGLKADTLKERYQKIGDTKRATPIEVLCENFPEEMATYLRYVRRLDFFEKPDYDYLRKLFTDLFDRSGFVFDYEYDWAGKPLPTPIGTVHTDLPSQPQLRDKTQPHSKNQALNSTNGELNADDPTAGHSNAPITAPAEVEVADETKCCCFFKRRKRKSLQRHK
Chain of Plk1(h) (P53350 whole entry): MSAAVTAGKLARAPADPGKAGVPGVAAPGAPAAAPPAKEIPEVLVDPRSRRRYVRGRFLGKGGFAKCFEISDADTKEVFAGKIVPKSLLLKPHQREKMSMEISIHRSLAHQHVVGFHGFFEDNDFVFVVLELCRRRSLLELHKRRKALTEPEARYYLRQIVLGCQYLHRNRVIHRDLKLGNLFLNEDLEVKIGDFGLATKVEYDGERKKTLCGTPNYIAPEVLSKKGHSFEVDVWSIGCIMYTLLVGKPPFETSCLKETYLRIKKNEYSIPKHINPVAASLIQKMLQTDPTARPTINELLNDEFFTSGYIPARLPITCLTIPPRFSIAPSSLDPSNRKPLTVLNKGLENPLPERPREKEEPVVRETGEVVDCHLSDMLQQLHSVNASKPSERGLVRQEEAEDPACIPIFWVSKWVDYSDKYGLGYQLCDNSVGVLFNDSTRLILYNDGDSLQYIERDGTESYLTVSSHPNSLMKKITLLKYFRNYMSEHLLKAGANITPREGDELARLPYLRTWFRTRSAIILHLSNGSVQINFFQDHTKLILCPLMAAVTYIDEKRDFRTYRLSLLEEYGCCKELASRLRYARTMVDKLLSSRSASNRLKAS

Row | Sequence | % activity (EGFR(T790M)(h)) [%] | % activity (Aurora-A(h)) [%] | % activity (PAR-1Bα(h)) [%] | also measured
1 | FAKLAARLYRKALARQLGVAA [MMI-0300] | 100 | 92 |  | % activity (CK1γ2(h)): 123%
2 | KAFAKLAARLYRKALARQLGVAA [MMI-0400] |  |  |  | % activity (PAK6(h)): 100%
3 | YARAAARQARAKALNRQLGVA [MMI-0200] |  |  | 110 | % activity (CLK2(h)): 97%; % activity (Plk1(h)): 128%; % activity (CK1γ1(h)): 98%
4 | HRRIKAWLKKIKALARQLGVAA [MMI-0500] | 70 | 110 | 97 | % activity (c-RAF(h)): 19%
